From paper PMC6163367 come the findings set out here.

Test [1] deals with integrin α5β1 (mouse (endogenous in mouse synovial cells)) (UniProt P11688). Nature of the test: flow cytometry on cells; mouse synovial cells blocked with 1% BSA, incubated with 1, 10 or 75 uM HM-3-Fc for 1 h at 4 °C, no blocking antibody; FITC-protein A as probe for the Fc part.
In test [2] the target is integrin αvβ3 (mouse (endogenous in mouse synovial cells)) (UniProt P43406). The test is described as above.
The target in test [3] is integrin α5β1 (mouse (endogenous in mouse synovial cells)) (UniProt P11688). As to the kind of experiment: flow cytometry on cells; mouse synovial cells first incubated with anti-αvβ3, anti-α5β1 or both blocking antibodies for half an hour at 4 °C, washed, then 75 uM HM-3-Fc for 1 h at 4 °C; FITC-protein A as probe. For orientation: A flow cytometer gives signals particle by particle.

Test [4] addresses integrin αvβ3 (mouse (endogenous in mouse synovial cells)) (UniProt P43406). The test is described as above.

UniProt P43406, sequence (P43406 31-1044, chain 1 of 2): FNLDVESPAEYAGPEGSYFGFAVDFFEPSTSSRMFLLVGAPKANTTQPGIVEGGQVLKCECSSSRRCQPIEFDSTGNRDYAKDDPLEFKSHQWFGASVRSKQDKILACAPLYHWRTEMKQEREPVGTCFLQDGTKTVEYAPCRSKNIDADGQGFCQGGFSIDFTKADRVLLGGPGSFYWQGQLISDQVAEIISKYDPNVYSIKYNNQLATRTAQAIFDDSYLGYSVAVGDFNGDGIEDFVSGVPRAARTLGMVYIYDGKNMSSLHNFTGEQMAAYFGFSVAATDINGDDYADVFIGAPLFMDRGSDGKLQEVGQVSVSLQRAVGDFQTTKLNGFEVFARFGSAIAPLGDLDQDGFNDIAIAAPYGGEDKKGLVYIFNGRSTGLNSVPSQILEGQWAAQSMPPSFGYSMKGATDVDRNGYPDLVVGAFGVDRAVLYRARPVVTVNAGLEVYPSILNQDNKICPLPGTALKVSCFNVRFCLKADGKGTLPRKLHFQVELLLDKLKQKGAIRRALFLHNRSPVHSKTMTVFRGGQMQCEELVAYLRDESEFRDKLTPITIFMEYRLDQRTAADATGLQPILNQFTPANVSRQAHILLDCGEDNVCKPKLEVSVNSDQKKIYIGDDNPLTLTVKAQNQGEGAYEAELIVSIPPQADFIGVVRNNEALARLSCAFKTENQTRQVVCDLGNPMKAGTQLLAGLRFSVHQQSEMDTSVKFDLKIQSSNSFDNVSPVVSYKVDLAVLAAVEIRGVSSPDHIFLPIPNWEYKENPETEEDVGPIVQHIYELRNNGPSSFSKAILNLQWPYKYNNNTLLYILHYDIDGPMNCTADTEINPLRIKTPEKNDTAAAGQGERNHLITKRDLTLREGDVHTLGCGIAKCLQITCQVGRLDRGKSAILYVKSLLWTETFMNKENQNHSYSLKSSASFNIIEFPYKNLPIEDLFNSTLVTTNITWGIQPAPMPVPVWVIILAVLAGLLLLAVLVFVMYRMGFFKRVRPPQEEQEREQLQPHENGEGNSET
UniProt P43406, sequence (O54890 26-787, chain 2 of 2, further chain): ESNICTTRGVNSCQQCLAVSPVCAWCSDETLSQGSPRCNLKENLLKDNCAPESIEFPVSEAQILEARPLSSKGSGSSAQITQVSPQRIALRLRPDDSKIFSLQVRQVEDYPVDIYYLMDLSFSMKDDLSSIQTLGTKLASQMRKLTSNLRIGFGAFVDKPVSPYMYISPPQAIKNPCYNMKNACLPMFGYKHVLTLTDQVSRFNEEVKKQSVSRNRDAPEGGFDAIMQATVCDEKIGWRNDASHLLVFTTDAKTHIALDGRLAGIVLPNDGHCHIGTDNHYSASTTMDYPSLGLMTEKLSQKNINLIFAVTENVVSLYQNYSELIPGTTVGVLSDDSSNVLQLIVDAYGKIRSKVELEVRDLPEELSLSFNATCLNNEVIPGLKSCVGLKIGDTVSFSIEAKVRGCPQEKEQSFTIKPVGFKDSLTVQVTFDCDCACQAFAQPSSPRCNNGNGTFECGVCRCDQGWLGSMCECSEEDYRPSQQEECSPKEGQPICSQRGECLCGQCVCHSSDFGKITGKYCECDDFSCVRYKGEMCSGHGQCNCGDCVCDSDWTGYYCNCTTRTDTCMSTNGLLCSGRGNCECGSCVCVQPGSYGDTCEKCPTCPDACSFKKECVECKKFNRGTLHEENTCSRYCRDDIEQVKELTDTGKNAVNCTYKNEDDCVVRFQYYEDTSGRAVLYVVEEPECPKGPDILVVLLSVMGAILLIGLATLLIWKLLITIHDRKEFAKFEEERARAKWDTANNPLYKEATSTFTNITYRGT
UniProt P11688, sequence (P11688 45-1053, chain 1 of 2): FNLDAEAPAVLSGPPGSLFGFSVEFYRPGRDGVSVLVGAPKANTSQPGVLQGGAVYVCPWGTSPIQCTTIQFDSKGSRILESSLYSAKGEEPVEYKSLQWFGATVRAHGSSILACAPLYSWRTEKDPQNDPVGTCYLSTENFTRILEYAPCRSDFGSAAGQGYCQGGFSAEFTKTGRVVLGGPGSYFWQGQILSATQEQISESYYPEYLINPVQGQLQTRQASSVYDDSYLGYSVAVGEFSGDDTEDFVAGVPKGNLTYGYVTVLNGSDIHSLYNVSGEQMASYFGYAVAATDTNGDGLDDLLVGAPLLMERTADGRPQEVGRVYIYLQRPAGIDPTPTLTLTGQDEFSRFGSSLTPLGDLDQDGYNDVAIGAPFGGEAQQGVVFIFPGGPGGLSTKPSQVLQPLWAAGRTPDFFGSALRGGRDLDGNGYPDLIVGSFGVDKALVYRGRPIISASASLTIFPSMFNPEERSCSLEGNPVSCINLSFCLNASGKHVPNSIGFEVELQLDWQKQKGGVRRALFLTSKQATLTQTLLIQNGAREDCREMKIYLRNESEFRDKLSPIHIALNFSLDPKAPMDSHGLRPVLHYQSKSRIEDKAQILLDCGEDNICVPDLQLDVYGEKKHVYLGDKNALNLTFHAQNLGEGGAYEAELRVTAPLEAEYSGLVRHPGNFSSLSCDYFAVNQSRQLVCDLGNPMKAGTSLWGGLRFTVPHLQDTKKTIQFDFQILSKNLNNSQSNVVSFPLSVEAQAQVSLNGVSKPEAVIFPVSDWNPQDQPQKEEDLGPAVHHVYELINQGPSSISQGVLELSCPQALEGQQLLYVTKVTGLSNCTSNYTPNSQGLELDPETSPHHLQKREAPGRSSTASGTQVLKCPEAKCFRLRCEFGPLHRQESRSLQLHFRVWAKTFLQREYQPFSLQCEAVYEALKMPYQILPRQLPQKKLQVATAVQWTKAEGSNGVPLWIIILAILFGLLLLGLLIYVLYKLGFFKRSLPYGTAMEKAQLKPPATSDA
UniProt P11688, sequence (P09055 21-798, chain 2 of 2, further chain): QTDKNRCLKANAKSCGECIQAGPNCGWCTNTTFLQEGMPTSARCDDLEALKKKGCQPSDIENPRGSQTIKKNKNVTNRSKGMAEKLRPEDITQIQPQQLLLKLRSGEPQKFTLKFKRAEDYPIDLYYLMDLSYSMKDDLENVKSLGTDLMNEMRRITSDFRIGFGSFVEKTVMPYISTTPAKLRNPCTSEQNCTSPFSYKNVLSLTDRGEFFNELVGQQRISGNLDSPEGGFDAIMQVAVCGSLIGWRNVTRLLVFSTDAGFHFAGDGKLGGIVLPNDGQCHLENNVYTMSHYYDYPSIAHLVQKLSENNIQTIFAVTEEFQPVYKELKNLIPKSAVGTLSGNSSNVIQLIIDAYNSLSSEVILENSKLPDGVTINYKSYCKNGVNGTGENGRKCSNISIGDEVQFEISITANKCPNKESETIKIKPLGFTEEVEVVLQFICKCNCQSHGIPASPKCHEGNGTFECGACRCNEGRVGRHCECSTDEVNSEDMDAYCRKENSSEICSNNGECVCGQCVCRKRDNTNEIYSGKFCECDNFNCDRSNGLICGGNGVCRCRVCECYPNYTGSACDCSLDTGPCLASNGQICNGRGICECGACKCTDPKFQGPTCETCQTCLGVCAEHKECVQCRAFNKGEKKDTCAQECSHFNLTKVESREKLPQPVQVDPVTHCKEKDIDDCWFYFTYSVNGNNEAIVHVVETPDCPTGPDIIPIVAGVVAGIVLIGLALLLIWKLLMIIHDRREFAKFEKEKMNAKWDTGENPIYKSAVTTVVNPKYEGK

In the case of HM-3-Fc fusion protein, the binding rate (percent of cells positive) at 75 umol/L, unblocked cells that carry both integrins in test [1] was determined as 70.7%. Besides, the binding rate (percent of cells positive) at 75 umol/L, unblocked cells that carry both integrins in test [2] was determined as 70.7%. In test [3], this substance displayed a binding rate (percent of cells positive) at 75 umol/L after block of αvβ3 and α5β1 together of 0.01%; a binding rate (percent of cells positive) at 75 umol/L after block with an anti-α5β1 antibody of 11.2%. Further, in test [4], the binding rate (percent of cells positive) at 75 umol/L after block of αvβ3 and α5β1 together stood at 0.01%; the binding rate (percent of cells positive) at 75 umol/L after block with an anti-αvβ3 antibody worked out at 1.4%.
